Substrate in data set [1]: CCCC=O
Briefly: AR kinetics, aldehyde reduction followed by NAD(P)H oxidation. The settings on record: other: butyraldehyde, pH 7.5. The format is biochemical, Thermotoga maritima. From the text: (§1) 28 aldehyde reductases from different bacteria were cloned and overexpressed in E. coli. Enzymes purified using affinity chromatography on Ni-NTA resin were screened for reductase activity with adipaldehyde and butyraldehyde in presence of both NADPH and NADH (Table 5). Butyraldehyde was used as a substrate substitute for 4-oxo-butanal, which is not commercially available. Reactions were followed spectrophotometrically, by cofactor oxidation at 340 nm.
(§2) Enzyme activity of purified ARs was measured spectrophotometrically in 96-well plates Reaction mixtures contained 100 mM HEPES buffer (pH 7.5), 0.4 mM NADH/NADPH, 10 mM adipaldehyde or butylaldehyde, and proteins (10 μg for adipaldehyde screen, 2 μg for butyraldehyde screen) in a final volume of 200 μL Reaction mixture for adipaldehyde screening contained 1.8% DMSO. Enzyme reactions were monitored by following the decrease in absorbance at 340 nm (ε340 nm=6,220/M·cm) due to oxidation of NAD(P)H to NAD(P)+.
(§3) ARs RHA1_ro05279, PA1146, SC00229, PP_3370 were characterised for saturation with adipaldehyde, PP_3370, PSPTO_2097, RHA1_ro05279, SC00229, TM_0111, PA1146 were characterised for butyraldehyde saturation (Table 10). […] For both substrates maximal kcat/Km with minimal Km values was shown by AR PP 3370 from Pseudomonas putida.

Substrate in data set [2]: O=CCCCCC=O
The data set can be described thus: AT kinetics, coupled with alanine and glutamate dehydrogenases. The format is biochemical, Streptomyces avermitilis. Conditions: other: amino-donor Ala/Glu; pH 7.5. On the procedure: (§4) 28 PLP-dependent aminotransferases (from the classes I, II and III) were cloned and overexpressed in E. coli (Table 6). Enzymes were purified using affinity chromatography on a Ni-NTA resin and were screened for […] activity towards adipaldehyde using alanine and glutamate as amino-donors. Enzyme activity was measured spectrophotometrically using a coupled reaction with the NADPH/NADH-dependent alanine and glutamate dehydrogenases in the presence of excess of ammonium chloride.
(§5) Reaction was monitored by following the decrease in absorbance of NAD(P)H to NAD(P)+ at 340 nm (ε340 nm=6,220/M·cm). Coupled enzymes can aminate pyruvate/ketoglutarate produced by ATs in excess of NH4Cl.

Substrate in data set [3]: O=CCCCCC=O
The description is as above. The format is biochemical, Escherichia coli. The settings on record: other: amino-donor Ala/Glu; pH 7.5. The procedure:
as §4, §5

Substrate in data set [4]: CCCC=O
Briefly: AR kinetics, aldehyde reduction followed by NAD(P)H oxidation. The format is biochemical, Pseudomonas putida. Conditions: other: butyraldehyde, pH 7.5.
Text: as §1, §2, §3

Substrate in data set [5]: O=CCCCCC=O
The description is as above. The format is biochemical, Pseudomonas putida. The settings on record: other: adipaldehyde, 1,8% DMSO, pH 7.5.
Text: as §1, §2, §3

Substrate in data set [6]: O=C(O)/C=C/c1ccccc1
The data set can be described thus: Kinetics of purified EREDBC, NADH oxidation at 340 nm, anaerobic. The settings on record: other: trans-cinnamic acid, pH 7.0, 30° C., anaerobic. The format is biochemical, Bacillus coagulans 36D1. The procedure:
(§6) The C═C reducing activity of EREDs was examined. Enzyme activity of purified EREDs was measured spectrophotometrically in 96-well plates by following incubation for 3-5 min at 30° C. in the anaerobic chamber as described in M. Buhler, H. Simon, Hoppe-Seyler's Zeitschrift fur Physiologische Chemie 1982, 363, 609-625. Buffers and reagents were degassed and sparged with Ar. Reaction mixture contained potassium phosphate (100 mM and pH 7.0), NADH (0.5 mM), indicated substrates, and proteins (0.1-50 μg) in a final volume of 200 μL. Enzyme reactions were monitored by following the decrease in absorbance at 340 nm (ε340 nm=6,220/M·cm) due to oxidation of NADH to NAD+.
(§7) For in vitro biochemical characterization, enzyme activities of purified EREDs were measured with 2-hexenedioic acid, cis-cis-muconic acid, trans-trans muconic acid, trans-cinnamic acid, trans-2-methyl-2-butenoic acid, trans-2-butenoic acid, acrolein, 2-cyclohexen-1-one, and 3-methyl-2-cyclohexenone. […] [Feng, J. et al. Discovery and Characterization of BlsE, a Radical S-Adenosyl-L-methionine Decarboxylase Involved in the Blasticidin S Biosynthetic Pathway. PLoS ONE 8 (2013)].
(§8) Kinetic studies of purified EREDBC were performed using 2-hexenedioic acid, 2-cyclohexen-1-one, 3-methyl-2-cyclohexenone, and trans-cinnamic acid as substrates (FIG. 10).
(§9) To increase the dissolved substrate concentration, 2-hexenedioic acid was dissolved in a reaction mixture containing […] (final concentration) isopropanol, and kinetic constants of EREDBC and EREDCA were determined.

Substrate in data set [7]: O=C(O)C=CCCC(=O)O
The data set is described as above. The format is biochemical, Bacillus coagulans 36D1. The settings on record: other: 2-hexenedioic acid in 0.25 mM isopropanol, 2.5 to 35 mM, sigmoidal kinetics, pH 7.0, 30.0 °C. The procedure: as §6, §7, §8, §9

Substrate in data set [8]: CCCC=O
The data set can be described thus: AR kinetics, aldehyde reduction followed by NAD(P)H oxidation. The format is biochemical, Streptomyces coelicolor. The settings on record: other: butyraldehyde, pH 7.5.
Text: as §1, §2, §3

Substrate in data set [9]: O=CCCCCC=O
The data set is described as above. The format is biochemical, Streptomyces coelicolor. The settings on record: other: adipaldehyde; cofactor NADPH; 1,8% DMSO; pH 7.5.
Text: as §1, §2, §3

Our source for the Km, kcat and kcat/Km values is US12371675B2, “Process and microorganism for synthesis of adipic acid from carboxylic acids” (THE GOVERNING COUNCIL OF THE UNIVERSITY OF TORONTO, priority 2015, dated 2025).

B1: Thermotoga maritima aldehyde reductase TM_0111, SEQ ID NO: 52 (Thermotoga maritima MSB8) (protein)
chain: MFKISFYLPTEIIFRVGAVDELEERAKKLGKKALIVTGRSSTKKTGLLQRVVDLLKKAGVESFVFDKIVPNPISDHVDEAAEIVRKEKIDFIIGLGGGSPIDSAKAISITAPNEGKFWDYVPVGGGKIPEKSIPVVAIPTTHGTGTEADPFAVITNPQTKEKVGIGYRNTFPVLSLVDPEVMKTLPKDQTAYTSMDAFYHAIEAFLNVNANPYSDVLALDAMKRIVTYLPVAYENGEDMEARTNLAWASTEAGITETLTGVIANHALEHGLSGFYPEITHGLGLCITGPYLFEYIFDHAYERLAIVGREVFGVYETDDRKAGRLAIKKLRDFQEMFGLNKRLSELGVKKEDIPKMAETGYRILNGVVVVTPGNLTAKDMEEIFNRCY
For B1, in data set [1] (cofactor NADH), the Km is 1370 ± 310 µM, the kcat is 0.90 ± 0.05 s⁻¹ and the kcat/Km entry is given as “(6.57 ± 0.36) × ×10^2 M^−1 · s^−1”. Also, in data set [1] (cofactor NADPH), the Km turned out to be 2720 ± 1390 µM, the kcat is 0.30 ± 0.06 s⁻¹ and the kcat/Km result is “(1.10 ± 0.22) × ×10^2 M^−1 · s^−1”.

B2: Streptomyces avermitilis aminotransferase SAV2583, SEQ ID NO: 55 (Streptomyces avermitilis MA-4680 = NBRC 14893) (protein)
chain: MSALPQERRVVTAIPGPKSQELQARRTAVVAAGVGSVLPVFTTRAGGGIIEDVDGNRLIDFGSGIAVTSVGASAEAVVRRASAQLQDFTHTCFMVTPYEGYVAVAEALAELTPGDHAKKSALFNSGAEAVENAVKIARAYTKRQAVVVFDHGYHGRTNLTMALTAKNMPYKNGFGPFAPEVYRVPVAYGYRWLTGPENAGAEASAQAIDMINKQIGADNVAAIIIEPVLGEGGFIEPAKGFLPAISKFAKDNGIVFVADEIQSGFCRTGQWFACEDEGIVPDLITTAKGIAGGLPLAAVTGRAEIMDAAHAGGLGGTYGGNPVACAGALGAIETMKELDLNAKAKNIEAVMKARLGAMAEKFDIIGDVRGRGGMIAIELVKDRDTKEPNPEAAGALAKACHQEGLLVLTCGTYGNVLRFLPPLVIGEDLLNEGLDIIEQAFSRI
For the protein B2, in [2], the Km was 1350 ± 190 µM, the kcat is 0.39 ± 0.02 s⁻¹ and the kcat/Km result is “(2.90 ± 0.13) × ×10^2 M^−1 · s^−1”.

B3: Escherichia coli aminotransferase gabT, SEQ ID NO: 53 (Escherichia coli K-12) (protein)
chain: MNSNKELMQRRSQAIPRGVGQIHPIFADRAENCRVWDVEGREYLDFAGGIAVLNTGHLHPKVVAAVEAQLKKLSHTCFQVLAYEPYLELCEIMNQKVPGDFAKKTLLVTTGSEAVENAVKIARAATKRSGTIAFSGAYHGRTHYTLALTGKVNPYSAGMGLMPGHVYRALYPCPLHGISEDDAIASIHRIFKNDAAPEDIAAIVIEPVQGEGGFYASSPAFMQRLRALCDEHGIMLIADEVQSGAGRTGTLFAMEQMGVAPDLTTFAKSIAGGFPLAGVTGRAEVMDAVAPGGLGGTYAGNPIACVAALEVLKVFEQENLLQKANDLGQKLKDGLLAIAEKHPEIGDVRGLGAMIAIELFEDGDHNKPDAKLTAEIVARARDKGLILLSCGPYYNVLRILVPLTIEDAQIRQGLEIISQCFDEAKQ
notes: 6His-tag (N); made in house; host or cells: E. coli BL21 (DE3)
On to B3, for which, in [3], the Km is 670 ± 70 µM, the kcat was 0.61 ± 0.02 s⁻¹ and the kcat/Km is 9.22±0.27 ×10^2 M^−1 · s^−1.

B4: Pseudomonas putida aldehyde reductase PP_3370, SEQ ID NO: 45 (Pseudomonas putida KT2440) (protein)
chain: MQYVKLGSTGLDISRLCLGCMTFGEPDAGTHPWTLGEDASRPIIRHAVEQGINFFDTANSYSAGTSEIILGKLLREFTRREETVIATKVFFPANMWEGASRPNEQGLSRKAIMANIDASLSRLGTDYVDLYQIHRWDYHTPIEETMEALHDVVKAGKARYIGASSMYAWQFAKAQQVAANHGWSRFVSMQNYLNLIYREEEREMIPLCLDQGVGLMPWSPMARGRLTRPHGQQTQRTRTDVSGQSFYEKTEVEDGRVIDVVEQIASERGVPMAQVALAWVLGRAGVSAPIVGASKPAHLDDALGALSLQLSEDEVARLQAPYVPHAVTGFK
In the case of B4, the Km is 16100 ± 1890 µM in data set [4] (cofactor NADH), 1530 ± 110 µM in [4] (cofactor NADPH), 4780 ± 490 µM in data set [5] (cofactor NADH) and 290 ± 20 µM in [5] (cofactor NADPH). The kcat in [4] (cofactor NADH) came out at 10.7 ± 0.73 s⁻¹; in data set [4] (cofactor NADPH), 8.54 ± 0.22 s⁻¹; in data set [5] (cofactor NADH), 1.74 ± 0.08 s⁻¹; in data set [5] (cofactor NADPH) it was 6.03 ± 0.25 s⁻¹. Moreover, the kcat/Km entry in [4] (cofactor NADH) is given as “(6.64 ± 0.45) × ×10^2 M^−1 · s^−1”; in [4] (cofactor NADPH), 5.58±0.14 ×10^3 M^−1 · s^−1; in data set [5] (cofactor NADH) it was “(3.64 ± 0.16) × ×10^2 M^−1 · s^−1”; in data set [5] (cofactor NADPH), 2.08±0.09 ×10^4 M^−1 · s^−1.

B5: Bacillus coagulans 36D1 2-enoate reductase EREDBC, SEQ ID NO: 1 (Heyndrickxia coagulans) (protein)
chain: MKYKKLFETVKIRNVELKNRYAMAPMGPLGLADAEGGFNQRGIEYYTARARGGTALIITGVTFVDNEVEEHGMPNVPCPTHNPVHFVRTSKEMTERIHAYDSKIFLQMSAGFGRVTIPTNLGEYPPVAPSPIPHRWLDKTCRELTVEEIHSIVRKFGDGAFNAKRAGFDGVQIHAVHEGYLLDQFAIAFFNKRTDAYGGPLENRLRFAREIVEEIKQRCGEDFPVTLRFSPKSFIKDWREGALPGEEFEEKGRDLDEGIEAAKLLVSYGYDALDVDVGSYDSWWWSHPPMYQKKGLYIPYARLVKEAVDVPVLCAGRMDNPDLALAALEDGACDIISLGRPLLADPDYVNKLRIGQVADIRPCLSCHEGCMGRIQEYSSLGCAVNPAACREKEAALTPALKKKRVLIAGGGVAGCEAARVLALRGHEPVIFEKSNRLGGNLIPGGAPDFKEDDLALVAWYEHTLERLGVEIHLNTALTKEEILAANVDAVLIATGSNPKILPLDGKNKVFTAEDVLLDKVDAGQHVVIVGGGLVGCELALNLAEKGKDVSLVEMQDKLLAVNGPLCHANSDMLERLVPFKGVQVYTSSKIVDTTEKTAVVDVDGELREIEADSIVLAVGYSAEKSLYEDLKFEVADLHVVGDARKVANIMYAIWDAYEVAANL
For the protein B5, in data set [6], the Km was 510 µM and the kcat is 0.50 s⁻¹. Further, the Km in data set [7] worked out at 18900 µM.

B6: Streptomyces coelicolor aldehyde reductase SCO0229, SEQ ID NO: 50 (Streptomyces coelicolor A3(2)) (protein)
chain: MQRQNWLITGVSTGLGRAFAQAALSAGHTVVGTVRSENDVRAFEELGPGHAHGRILDVTDGGAVNGVVAEVERSVGPLDVVVANAGYGLEGTFEETPLAEVRRQFDVNVFGAMATLQAALPHMRARRRGHLMAVTSMGGLMAVPGMSAYCGSKFALEGILEALGKEVAQFGIHVTAIEPGSFRTDWAGRSMTRAARTVADYDDLFAPIREARQKASGNQLGNPAKAGEAVVHITSVDQPPAHLVLGSDALRLVTAARTAVDEDIRAWEALSRTTDFPQGAQL
For the protein B6, the values for the Km in data set [8] (cofactor NADH), in [8] (cofactor NADPH) and in [9] were 6560 ± 2540 µM, 35700 ± 10500 µM and 8480 ± 580 µM, respectively. Besides, the figures for the kcat in [8] (cofactor NADH), in data set [8] (cofactor NADPH) and in data set [9] were 0.90 ± 0.05 s⁻¹, 21.9 ± 4.69 s⁻¹ and 3.79 ± 0.10 s⁻¹, respectively. Besides, the kcat/Km entry in data set [8] (cofactor NADH) is “(1.07 ± 0.18) × ×10^2 M^−1 · s^−1”; in data set [8] (cofactor NADPH) it was “(6.15 ± 1.31) × ×10^2 M^−1 · s^−1”; in data set [9] it was “(4.47 ± 0.12) × ×10^2 M^−1 · s^−1”.
